Measured values published in article PMC5384453, “A multi-functional PEGylated gold(III) compound: potent anti-cancer properties and self-assembly into nanostructures for drug co-delivery” (Chemical Science, 2016).

Legend:
[1] = mouse
Experimental: The anti-tumor experiments using mice were approved by the animal ethics committees of Jinan University and The University of Hong Kong. […]
(§1) point of tumor growth inhibition study, the mice treated with complex 1, 3 and Au1a, respectively, were sacrificed and tissues including liver, spleen, lung, kidney and heart were harvested. The tissues were digested with 10% HCl in concentrated HNO3 (0.1 g of tissue/1 mL). The solution mixture was heated at 60 °C for 15 h, and then diluted 50 times by ultra-pure water for ICP-MS analysis.
(§2) Determination of in vivo biodistribution of complex 1, 3 and Au1a by ICP-MS.
(§3) Nude mice bearing HCT116 xenografts were treated with 1 (13 mg/kg), or equal molar amount of Au1a (2 mg/kg) or 3 (2 mg/kg) through intravenous injection. After 24 h of the injection, the mice were sacrificed and tissues from tumor, liver, spleen, lung, kidney and heart were harvested. The tissues were digested with 10% HCl in concentrated HNO3 (0.1 g of tissue/1 mL). The solution mixture was heated at 60 °C for 15 h, and then diluted 50 times by ultra-pure water for ICP-MS analysis.
Analysis of tumor tissue from mice treated with complexes 1 by UPLC-QTOF-MS. At the end point of tumor growth inhibition study, the mice treated with solvent control or complex 1 were sacrificed and the tumor tissues were harvested, followed by homogenization in 50% ice-cold acetonitrile (0.1 g/300 µL). […]

[2] = test system: A2780cis xenografts; test: In vivo inhibition of tumor growth in nude mice bearing A2780cis xenograft
Experimental: To further investigate the ability of 1 to treat drug-resistant tumors that should be of great interest in clinical application, in vivo antitumor experiments on nude mice bearing cisplatin-resistant A2780cis xenografts with 1 were conducted. […]
every 2 days for 24 days. The control group received equal volume of PBS only.
During the treatment period, the tumor volume and body weight of the nude mice were measured per two days. The tumor volume was calculated by the equation:
Volume (mm3) = l×w2/2, where l and w were the length and width of the tumor. At the end of the treatment, the nude mice were sacrificed and the tumor weight was […]
H&E staining and immunohistochemical (IHC) analysis of mice tissues. […] The expression of p53, Ki67, VEGFR2 and TUNEL was determined by IHC methods as reported previously. […]
animal study. […] During the treatment period, the tumor volume and body weight of the nude mice were measured […]
once every 2–3 days. The tumor volume was calculated by the equation: Volume (mm3) = l×w2/2, where l and w were the length and width of the tumor. At the end of the treatment, the nude mice were sacrificed and the tumor weight was measured. […]
of apoptosis of HCT116 cells was investigated by CellEvent Caspase-3/7 Green ReadyProbes Reagent (30 µL), similar to the procedure of the experiments on gold(III) […]

[3] = In vivo biodistribution by ICP-MS in nude mice bearing HCT116 xenografts; conditions: single-dose i.v., 24 h post-treatment
Excerpt: Significant pulmonary hemorrhage in the alveoli and a thickening of alveolar walls were found. Also, apoptotic hepatocytes and swollen renal epithelial cells were found, leading to subsequent shrinkage of kidney tubules. […] The lower systemic toxicity of 1 can be explained by the lower accumulation of 1 in the organs of mice treated at its effective dosage, as compared to that of 3 and Au1a (Fig. S23 ^†). […] This can be attributable to the nanostructures of 1, which may lead to in vivo tumor accumulation by the EPR effect.[55] […]
as §1, §2
as §3, with “The solution mixture was heated at 60 °C for 15 h, and then diluted 50 times by ultra-pure water for ICP-MS analysis.” left out

[Au(TPP–COO–PEG5000–OCH3)]Cl [Compound 1]
hydrolysis in vivo (species found in tumor tissues) [1]: [Au(TPP–COOH)]^+ was found in the UPLC-QTOF-MS of tumor tissues
reduction of tumor volume ([2]; 4 mg kg^–1, intravenous injections every 2–3 days for 13 days, n = 5): Over 52%
mouse death / body weight ([2]; A2780cis xenograft nude mice, 4 mg kg^–1 i.v., 13 days): no mouse death or significant loss in body weight
higher accumulation in tumor compared to mice treated with 3 ([3]; equal molar amount (1 13 mg kg^–1, 3 2 mg kg^–1)): 2.0 fold
higher accumulation in tumor compared to mice treated with Au1a ([3]; equal molar amount (1 13 mg kg^–1, Au1a 2 mg kg^–1)): 3.3 fold
